# Results published in patent US20080247951A1 (Genentech, published 2008).
# T1: murine Robo4 expressed endogenously on MS1 cells (mouse, UniProt Q8C310 28-1012)
# T1 construct: whole, on cells
# T1 sequence (looked up): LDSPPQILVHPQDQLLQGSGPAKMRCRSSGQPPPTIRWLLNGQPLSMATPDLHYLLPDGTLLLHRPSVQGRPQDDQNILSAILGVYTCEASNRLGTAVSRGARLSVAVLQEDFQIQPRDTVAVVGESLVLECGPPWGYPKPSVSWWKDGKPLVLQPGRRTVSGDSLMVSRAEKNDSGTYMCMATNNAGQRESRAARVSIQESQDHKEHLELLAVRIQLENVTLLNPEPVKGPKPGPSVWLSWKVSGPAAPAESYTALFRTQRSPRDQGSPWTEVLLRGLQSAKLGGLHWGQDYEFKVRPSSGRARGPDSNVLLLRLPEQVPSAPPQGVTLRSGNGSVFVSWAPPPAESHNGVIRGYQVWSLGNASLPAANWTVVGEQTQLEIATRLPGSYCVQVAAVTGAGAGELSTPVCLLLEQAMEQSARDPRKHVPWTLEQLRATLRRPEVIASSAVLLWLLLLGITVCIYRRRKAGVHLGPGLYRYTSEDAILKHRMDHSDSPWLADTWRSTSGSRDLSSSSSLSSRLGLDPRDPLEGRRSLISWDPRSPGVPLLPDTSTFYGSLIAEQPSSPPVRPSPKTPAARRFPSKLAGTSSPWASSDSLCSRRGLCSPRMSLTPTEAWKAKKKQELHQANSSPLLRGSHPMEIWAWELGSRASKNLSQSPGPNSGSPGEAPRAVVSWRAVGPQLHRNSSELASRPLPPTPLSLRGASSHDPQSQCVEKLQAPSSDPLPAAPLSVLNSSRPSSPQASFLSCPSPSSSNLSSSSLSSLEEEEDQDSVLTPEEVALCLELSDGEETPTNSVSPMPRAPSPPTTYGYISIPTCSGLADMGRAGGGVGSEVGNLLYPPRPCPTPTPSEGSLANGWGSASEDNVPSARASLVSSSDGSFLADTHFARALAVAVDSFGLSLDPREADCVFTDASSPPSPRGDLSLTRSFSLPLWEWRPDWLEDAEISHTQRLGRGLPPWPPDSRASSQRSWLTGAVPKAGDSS
# T2: human Robo4 expressed endogenously on HUVEC cells (human, UniProt Q8WZ75 28-1007)
# T2 sequence: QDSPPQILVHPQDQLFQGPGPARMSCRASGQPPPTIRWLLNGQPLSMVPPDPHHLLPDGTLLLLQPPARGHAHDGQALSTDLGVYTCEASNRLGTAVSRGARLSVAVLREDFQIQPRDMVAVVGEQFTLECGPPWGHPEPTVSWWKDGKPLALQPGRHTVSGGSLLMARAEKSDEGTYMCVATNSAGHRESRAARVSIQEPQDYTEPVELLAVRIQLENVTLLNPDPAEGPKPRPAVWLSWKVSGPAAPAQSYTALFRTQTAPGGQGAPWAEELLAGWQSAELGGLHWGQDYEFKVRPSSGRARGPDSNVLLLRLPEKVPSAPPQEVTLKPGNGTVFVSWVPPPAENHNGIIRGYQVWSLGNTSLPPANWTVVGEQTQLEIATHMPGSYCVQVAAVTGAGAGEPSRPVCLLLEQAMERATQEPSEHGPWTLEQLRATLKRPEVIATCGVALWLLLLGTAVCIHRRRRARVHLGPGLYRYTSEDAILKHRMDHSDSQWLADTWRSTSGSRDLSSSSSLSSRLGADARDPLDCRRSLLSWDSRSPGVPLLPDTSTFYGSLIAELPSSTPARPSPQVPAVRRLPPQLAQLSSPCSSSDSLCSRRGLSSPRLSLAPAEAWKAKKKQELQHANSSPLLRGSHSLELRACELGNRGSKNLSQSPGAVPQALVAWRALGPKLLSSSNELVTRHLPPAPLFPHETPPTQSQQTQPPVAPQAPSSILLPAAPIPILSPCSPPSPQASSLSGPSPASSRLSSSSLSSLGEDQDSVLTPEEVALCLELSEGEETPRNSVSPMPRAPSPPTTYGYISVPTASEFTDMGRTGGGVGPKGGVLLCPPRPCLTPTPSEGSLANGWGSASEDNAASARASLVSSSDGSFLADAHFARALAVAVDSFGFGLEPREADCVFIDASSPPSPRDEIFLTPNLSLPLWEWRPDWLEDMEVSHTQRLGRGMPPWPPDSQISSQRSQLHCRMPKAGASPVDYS
# Assays:
# [1] = molecular target: T1, murine Robo4 expressed endogenously on …; test: FACS on MS1 cells, Alexa 488 detection
# [2] = molecular target: T2, human Robo4 expressed endogenously on …; test: FACS on HUVEC cells, Alexa 488 detection
binder,measurement,setting,value
"anti-Robo4 antibody YW71.22 (full length) (antibody, V domains shown, also called parent antibody) VH: EVQLVESGGGLVQPGGSLRLSCAASGFTINGYYIHWVRQAPGKGLEWVGFIYPAGGDTDYADSVKGRFTISADTSKNTAYLQMNSLRAEDTAVYYCARLIGNKFGWSSYGMDYWGQGTLVTVSS VL: DIQMTQSPSSLSASVGDRVTITCRASQDVSTAVAWYQQKPGKAPKLLIYSASFLYSGVPSRFSGSGSGTDFTLTISSLQPEDFATTYCQQSYTTPPTFGQGTKVEIKR",binding result,[1],binds
same,binding result,[2],binds
